Assay results reported in patent CN117384291A (WUHAN ABCLONAL INC, dated 2024).

Biological target: T1, 人SALL4蛋白 (human, UniProt Q9UJQ4 1-1053, limits assumed)
T1 construct: Endogenous SALL4 in fixed tissue sections; also called human SALL4
T1 sequence (looked up): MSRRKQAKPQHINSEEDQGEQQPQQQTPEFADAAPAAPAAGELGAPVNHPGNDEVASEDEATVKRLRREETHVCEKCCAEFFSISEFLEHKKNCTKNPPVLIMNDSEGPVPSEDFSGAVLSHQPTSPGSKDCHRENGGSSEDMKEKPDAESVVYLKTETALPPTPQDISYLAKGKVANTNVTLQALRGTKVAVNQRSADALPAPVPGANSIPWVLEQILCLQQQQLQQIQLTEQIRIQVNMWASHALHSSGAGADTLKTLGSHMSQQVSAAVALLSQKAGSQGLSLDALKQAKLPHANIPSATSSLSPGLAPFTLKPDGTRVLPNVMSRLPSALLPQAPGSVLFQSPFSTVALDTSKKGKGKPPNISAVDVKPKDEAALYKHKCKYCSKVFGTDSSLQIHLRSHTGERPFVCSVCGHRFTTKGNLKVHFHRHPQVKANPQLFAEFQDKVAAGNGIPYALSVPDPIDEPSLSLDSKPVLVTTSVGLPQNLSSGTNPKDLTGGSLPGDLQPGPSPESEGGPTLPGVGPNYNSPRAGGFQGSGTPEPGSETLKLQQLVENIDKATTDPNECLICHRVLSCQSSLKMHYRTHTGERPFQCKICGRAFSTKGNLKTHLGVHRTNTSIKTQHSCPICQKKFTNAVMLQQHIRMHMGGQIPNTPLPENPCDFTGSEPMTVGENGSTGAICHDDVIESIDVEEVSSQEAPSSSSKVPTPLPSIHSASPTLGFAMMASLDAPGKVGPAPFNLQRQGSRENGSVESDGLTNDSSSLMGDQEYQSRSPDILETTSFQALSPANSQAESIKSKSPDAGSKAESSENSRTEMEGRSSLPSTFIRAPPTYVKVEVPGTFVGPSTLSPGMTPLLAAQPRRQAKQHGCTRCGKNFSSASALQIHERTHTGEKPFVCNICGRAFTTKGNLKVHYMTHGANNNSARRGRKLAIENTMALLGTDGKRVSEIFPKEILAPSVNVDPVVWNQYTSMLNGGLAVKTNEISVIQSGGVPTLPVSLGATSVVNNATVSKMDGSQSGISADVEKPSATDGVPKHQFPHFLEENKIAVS
Assay: IHC on paraffin sections of human seminoma, primary antibody 1:100

- binding result: binds
B1: 抗人SALL4兔单克隆抗体 (antibody, V domains shown)
VH: QSLEESGGRLVTPGGSLTLTCTVSGFSLSSNSITWVRQAPGKGLEWIGTMNIDNSTYYMSWAKGRLTISKTSTTVTLKMTSLTTEDTATYFCARIAVVSNTDIWGPGTLVTVSF
VL: AQALTQTPSSVSAAVGGTVTISCQSSQNVYDANALSWYQQKPGQPPKRLIYSASTLASGVPSRFKGSGSGTQFTLTISGVQCDDAASYYCAGVYYGKIGFGGGTEVVVKG
notes: also called 试验例2制备的抗人SALL4兔单克隆抗体; 识别人SALL4的兔单克隆抗体
